Consider 3 molecules from patent CN106589116A (INST MICROBIOLOGY CAS, dated 2017).

What is called Kd is the concentration at which binding is half-saturated. Lower therefore signals tighter binding.

The labels stand for the following.
B1: Z6 (antibody, V domains shown)
VH: QVQLQESGPGLVKPSETLSLICTVSGGSISTRDYYWGWIRQTPGKGLEWIGSIYYSGGTYYSPSLKSRVTISVDTSKNQFSLKLRSVTAADTAVYYCARQWGNYFDHWGQGSLVTVSS
VL: DIVLTQSPSFLSASVGDRVTITCRASQGIDTYLAWYQQKPGKAPKLLIYGASTLQSGVPSRFSGSGSGTEFTLTISSLQPEDFATYYCQQLNNYHFTFGPGTKVDIKR
notes: also called 克隆Z6; 人源单克隆抗体Z6
B2: Z5 (antibody, V domains shown)
VH: QVQLQESGHRLVKPSETLSLTCTVSGGSISSDPYLWGWIRQPPGKGLEWIGSIYHSGSAYYNPSLKSRVTLSVDTSRNQFSLKVNSVTATDTAVYYCVEVAPPEKWGRGILVTVSS
VL: QSALTQPPSASGSPGQSVTISCTGTSSDVGGYNYVSWYQQHPGKAPKLMIYAVNKRPSGVPDRFSGSKSGNTASLTVSRLQDDDEADYYCSSYGGSNNILFGGGTKLTVLG
notes: also called 克隆Z5; 人源单克隆抗体Z5
B3: Z7 (antibody, V domains shown)
V domain 1: QVQLQESGPGLVKPSETLSLTCTVFGGSVNNPTNYWGWIRQSPGKGLEWIGSVYYTGINYYNPSLESRVTIAVVTSKNQFSLKLTSVTATDTAVYYCARHPRPETGYDFDYWGQGTLVTVSS
V domain 2: QSVLTQPPSVSAAPGQKVTISCSGSSSNIGNNYVSWYQQLPGTAPKLLLYDNNKRPSGTPDRFSGSKSGTSATLGIAGLQTGDEAVYHCATWDSSLSAEVFGGGTQVTVLG
notes: also called 克隆Z7; 人源单克隆抗体Z7

The target in the assay is ZIKV-E蛋白 (寨卡病毒E蛋白胞外区, C端6*His, 大肠杆菌表达复性) (Zika virus, UniProt A0A024B7W1 291-699). The assay is described as follows: SPR, Biacore T100, antibody captured by anti-human IgG on CM5, ZIKV-E as analyte.
Sequence of ZIKV-E蛋白 (寨卡病毒E蛋白胞外区, C端6*His, 大肠杆菌表达复性) (A0A024B7W1 291-699, tags left off): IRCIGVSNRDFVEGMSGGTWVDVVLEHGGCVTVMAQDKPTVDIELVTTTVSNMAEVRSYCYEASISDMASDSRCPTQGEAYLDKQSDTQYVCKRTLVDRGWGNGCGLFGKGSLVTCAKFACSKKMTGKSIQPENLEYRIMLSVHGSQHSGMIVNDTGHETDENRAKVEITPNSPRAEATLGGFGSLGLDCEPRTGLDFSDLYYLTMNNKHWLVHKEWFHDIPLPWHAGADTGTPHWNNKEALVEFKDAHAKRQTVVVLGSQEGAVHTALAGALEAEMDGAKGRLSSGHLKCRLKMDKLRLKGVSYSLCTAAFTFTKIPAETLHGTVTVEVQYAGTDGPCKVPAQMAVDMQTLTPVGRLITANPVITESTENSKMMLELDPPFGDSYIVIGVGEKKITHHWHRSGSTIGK
The molecule B1 gave a Kd of 0.0447 nM.

Take B2: binding was characterised by a dissociation constant (Kd) of 0.0399 nM.

B3 had a Kd of 0.2 nM.
